Reference: the DeepSol protein solubility set

Assay: soluble on expression in E. coli; label from the status in PepcDB or PDB records

Row | Sequence | soluble on expression in E. coli
1 | GSHMASDRKTEFILCVETFNEKAKKGIQMLIEKGFIDSDSNRDIASFLFLNNGRLNKKTIGLLLCDPKKTSLLKEFIDLFDFKGLRVDEAIRILLTKFRLPGESQQIERIVEAFSSKYSADQSNDKVELEDKKAGKNGSESMTEDDIIHVQPDADSVFVLSYSIIMLNTDSHNPQVKDHMTFDDYSNNLRGCYNGKDFPRWYLHKIYTSIKVKEIVMPEEH | soluble
2 | AHHHHHHGSLKLVENVVGRVSEEENKVPEVQVPQSSIDEELKKIVEQIKARIYVVGVGGAGCNTVNRMMEVGVTGAKIIAVNTDAQDLLKVKAHQKILIGKELTRGLGAGNDPKIGEEAAKESERELRDALEGADMVFITCGLGGGTGTGAAPVIAEIARKMGALTVSVVTLPFTMEGIRRAKNAEYGLKRLVKYSDTVIVIPNDKLLEVAPKLPIQMAFKVADEILVQAVKGITELITKPGLVNLDFNDVRAVMKDGGVAMIGIGESDSEKRALEAAEQALNSPLLDVDISGATGALIHISGADVKLEEAQQIIEYVTRNVDPKAQVIWGIQLEPELEKTIRVMVVITGVTSRYITPEEETPLETPEESPSIEISIPEL | soluble
3 | MKKTHINVIGAGLAGSEAAYQIAKRGIPVKLYEMRGVKQTPQHKTDKFAELVCSNSLRGAAITNAVGLLKEEMRRLDSVIIKAAEVTQVPAGGALAVDREGFSDFVTREVSNHPLVEVIREEITDLPEDEITIIATGPLTSDKLAEKIHEFNGADGFYFYDAAAPIIDANSINFDKVYKKSRYDKGEADYINCPMTKEEFQAFQEALISAEEAPLNSFEDLKVFEGCMPIEEMAKRGYKTMLFGPMKPVGLEYPEDYKGPRDGDFKTPYAVVQLRQDNASASLYNIVGFQTHLKWGEQKRVFQMIPGLENAEFVRYGVMHRNSYMDSPNLLKQTFQSRKQENLFFAGQMTGVEGYVESAASGLVAGINAVKLFNDEEVVIFPKTTAIGSLPYYITHTDSKHFQPMNVTFGIVEELEGPRIRDKKERYTKVAERALNSLTDIISKDNLLEHHHHHH | soluble
4 | DLYDDDDKDPTLMKISRGLLKTILEAAKSAHPDEFIALLSGSKDVMDELIFLPFVSGSVSAVIHLDMLPIGMKVFGTVHSHPSPSCRPSEEDLSLFTRFGKYHIIVCYPYDENSWKCYNRKGEEVELEVVEKD | soluble
5 | SLPKFGIEKRYNAAKSDIVSYLEKNNRNTSLGARFDMWENALIAIKEAPIFGHGSDGYDEFRHKQVKSKQMAKTTLNFGSLHNQYLESWVKRG | not soluble
6 | MAKRILCFGDSLTWGWVPVEDGAPTERFAPDVRWTGVLAQQLGADFEVIEEGLSARTTNIDDPTDPRLNGASYLPSCLATHLPLDLVIIMLGTNDTKAYFRRTPLDIALGMSVLVTQVLTSAGGVGTTYPAPKVLVVSPPPLAPMPHPWFQLIFEGGEQKTTELARVYSALASFMKVPFFDAGSVISTDGVDGIHFTEANNRDLGVALAEQVRSLL | soluble
7 | MAKVRIYQLAKELGMETQELLELLDQMGVAYKSHASTLEEKDAEAVRELVKEQRGLQEKLAEEERRKSLPRRPPVVVIMGHVDHGKTTLLDYLRKSRIAEKEAGGITQHVGAFEVKTPQGTVVFIDTPGHEAFTTIRQRGAKVADIAVIVIAADDGIMPQTEEAIAHAKAAGAKLIFAINKIDLPQADPEKVKRQLMERGFVPEEYGGDAIVIPISAKTGQGVQDLLEMILLLAELEDYRADPNAEPRGVILESKLDKQAGIIANMLVQEGTFRVGDYVVAGEAYGRIRAMMDADGNQRKEAGPGSAVQVLGFQELPHAGDVVEWVPDLEAAKEIAEERKEERKAREEEEKARRPRTMAELLRAMQEEGRKELNLILRADTQGSLEAIQHILARESTEDVKINILLAQVGAPTESDVLLAQTANAAILAFGVNPPGSVKKKAEEKGVLLKTFRIIYDLVDEVRNMVKGQREPQYKEEVLGQAEVRAIFRLPTGKQVAGCMVTQGRIPRNAEVRVLRDGQVIWQGRIASLKRFKEDVREVAQGYECGIGLDGFDDFREGDVIEAFQMVEVPA | soluble
8 | TNTDQSIKFTSKSNSINKNNQNKELALLRDNLMNEAKVDEPLSFEKRFENFKNKYSDIHSLNNSVFSLHDVYDLLGGFKQSLTTFFDEVIAQQQKIKDADKIFPSTKDNPPKEENPNVLDTLANYQGAGFFPSLGKNGFNLPEAVFQNFTDFRINDYKIKNFNVDLVSENDIIKHDKVRYAFEV | not soluble
9 | MGRHLRLPSGTKLIVARNQGEVNFLKGFRNRYNYAYRKDGKGTFALIKGNPPEEELQLIADIIARYSKNEPAKVGIHLNGKEIELIGNPPSDEFLEQFKIYAKKEVGHGR | not soluble
10 | MKLSIVIVNYRVPYFLEQCLLSVRKSAQGIDTEVWVVDNNSGDGSVEYLQSRFPEVHFVANEENVGFSRANNQAIRLSKGQYVLLLNPDTLIGESTLRTVVDFMDSKPNAGGLGVKMLNGHGRFLPESKRGFPSPWVSFCKLSGLNRLFPHSSRFNRYHLSYLSRDEVHKVEVLSGAFMLMRREALDKVGLLDERFFMYGEDIDLSYRLILGGYDNYYYPTPILHYKGESSSVSDVKYLRSFYGAMGLFFDKYYRNRMNPLLHGLINVVIKARTALALMLRSLRKVPAAEKPAKIFYWHPSEGEAAISAYHDRSHILINTDEVTCDRLLLTMEKLADRKHTFHLTNDTTKRVISP | not soluble
11 | PRLLCTATKQKNSGQNLEEDMGQSEQKADPPATEKTLLEEKVKLEEQLKETVEKYKRALADTENLRQRSQKLVEEAKLYGIQAFCKDLLEVADVLEKATQCVPKEEIKDDNPHLKNLYEGLVMTEVQIQKVFTKHGLLKLNPVGAKFDPYEHEALFHTPVEGKEPGTVALVSKVGYKLHGRTLRPALVGVVKEA | not soluble
12 | DEPNQPSTPEAVTKTVTIDASKYETWQYFSFSKGEVVNVTDYKNDLNWDMALHRYDVRLNCGESGKGKGGAVFSGKTEMDQATTVPTDGYTVDVLGRITVKYEMGPDGHQMEYEEQGFSEVITGKKNAQGFASGGWLEFSHGPAGPTYKLSKRVFFVRGADGNIAKVQFTDYQDAELKKGVITFTYTYPVK | soluble
13 | MKTYEVGALLEAANQRDTKKVKEILQDTTYQVDEVDTEGNTPLNIAVHNNDIEIAKALIDRGADINLQNSISDSPYLYAGAQGRTEILAYMLKHATPDLNKHNRYGGNALIPAAEKGHIDNVKLLLEDGREDIDFQNDFGYTALIEAVGLREGNQLYQDIVKLLMENGADQSIKDNSGRTAMDYANQKGYTEISKILAQYN | soluble
14 | MGLLTNDIIEESAWEALEKSILYYKGRPVGTVAAFDASVEALNYDQCFVRDFVSSALIFLIKGKTDIVRNFLEETLKLQPKDRQLDAYKPGRGLIPASFKVVSDNGEEYLEADFGEHAIARVTPVDSCLWWILLLRAYVVASKDFSLAYQPEFQTGIRLIMEICLANRFDMYPTLLVPDGACMIDRRLGIYGHPLELQVLFYAALRAAREMLICQGNQDVVEAIDNRLPLLCAHIRQHYWIDINRLNAIYRFKSEEYGKAAVNLFNIYVDSIPYYELDKWLPKKGGYLAGNVGPSQLDTRFFALGNLMAIISDLATEEQSQAIMTLIEDRWEDLVGDMPMKICYPALENEEYRIVTGCDPKNIPWSYHNAGSWPVLMWMLAAASVKAGKPYIAGKAIEIAQARLLEDEWPEYYDGKKGRLIGKQARKYQTWTIAGFLLAAELMKNPSLLSLISFDKLPSELVSRACEFEIGSVDASISRLEHHHHHH | soluble
15 | MSVIIRLKNLPMTAGASDVRTFFTGLKIPDGAVHIIGGDEGEVFVGFSSDDDARLAMTKDRLMIHGAEVRLFLSSKSEQNSVIAARKNNTYTSPVYKEYVPPVPSQPTPAQEQNWNSQTAGNPYAAKAGYEASYPPQNSNATRTSFNNQNSYSNRQEISQNHQENSVKLKDPFGGDYGGYKFQQQPPPQINRYGSGPPPSKPADLSNTRSLPPVNNPPPPHPIPQFPPEKQFGNKLGNNNDVSSRENHIQGSGNERVQGGDSWRDTSFNQPPRNDFKGNYNNAYSSNKYKNNYKAPEFNNDFNGGNKFNQFPPRNAQSTDLSENRAAPPQTGRKTLMPTPQAPFQNAPAPFTNGPSDDVNRPFQTGPPGNLGRNGPPPFQAGVPPPVIQNNMGRPIAPPAAMVRPPPQNFPGGAGGALPVFQAPVMTPIVPPVNKPMGAAAVEKFYIELTRLPTDLLRPAALEAFIHPTAPLTLSSVKTVFGPGGIHMHTIIRLDSIADYATMMRRNGEQGIKIQQSDKKSFDTAIDGIPIPSVSMVPSKEQRSHEDDDKKSRRSRWENTSPIRSPRRSPLRRDNRDRSRSRSPPRRRRRSRSPRRREEHTDPTRWCVQVTNVPFRMKDEELLEWFSEKVRPAKLTRTFYSDGNASDRWVAEFSSESLMKRSFGIRTLCTGRTLRLRYIDNAKADEILKIEDVYGEGKRQMNEEARLQHEVAEKANPPSFFNAPAATRGSGPMPPLNGTAPLPSGQQNGMNVPPPNGFNGAPMRGGFVPRGGNNFSQSRGGMMGRGGHGGGGGPQNFYQNGPNNFNNGPPEQQGQFRGNQGNDGGFRGGFRGGYRGRGGGRGGFQGGSRGDDSQPSQSELMELIKSIGPRGTVLSCNGFPKDVTLEDVVEFFNDYEPDRNSIRIRRGDDGVMTGECMLACQNQENARRASMDLDGQKLRNSVISVRII | not soluble
16 | MSLTSDTKEKVEYSTDKYKVETNRFWDNWFISVGAGGQVYFGDHDKQIDFGDRIAPALDIAIGKWFTPGIGIRFMYSGLKSKGATRDDWECDITHGTGEHVPGWAGVPGDDLQYSKYKMSNLHADVLFNVLNLFGGYNENRKWDLSPYAGLGWARVYDSPSSKEVSANLGILTSWHFCDVLALNLDVRGMFVNDRFDGEGGGRFGEGNLSATIGLTYKFKQRSWDRSKTVYRYNYGDLESMRRKLNDMSAENDRLKKALADGDKQKAQTIVKKIASANLVTFKINRTKLSNEARANLGLLAEIIKSGDPETVYTITGYADAGTGSSKGNERLSKERAENVYDCLVKEFGVSEKQLRIDYKGGVDNMFYNDPRLSRAVITRGEEGHHHHHH | not soluble
17 | MSMTVTTYLPIEAIKQQFCQSLDEQNTLILSAPPGAGKSTCLPLWLLTLPSLANKKIYLLQPRRLAVKNIATFLAAQLKEKVGETVGYRLRNDSKTSTSTRLEVITEGILTQIIQKDAELLGTALVVFDEFHERSLQGDLAFALTREVQTELRDDLKILLMSA | not soluble
18 | MSLKLIASDMDGTLLDAKMSITNDNASAIREAERLGIEFMVATGRAYTEAKPALEEAGIDCAMITLNGAQVFDKDGHSLFTAGIEKETVTEVLTILSQHNVYYEISTNKGIFSEHQEKRIENFAAHIAESMPHLTYKVAIAMASAHLSLLHITYVDRLDDILKDDSIEVLKIIGFSMDGPKVLGPAGMEVEELDDLVVTSSALNNIEINHRLAQKGIAVARVAKERGIPAEQVMTIGDNLNDVSMIQWAGVSFAMGNAELELKEYAKYETATNLENGVGEAILRAIREDEGHHHHHH | soluble
19 | MNFLLILTLISIIVRSRQENASMDPCNDFYDYVCTNDTRSITKLNFASLFDDREILKPNISFPNNGTYIALDQILEPDRLMKWYMTVKSLDTATVDLEYFFETHYEYISKKNDSEKFSFAVETLENVNLTLTNIFYNSLYANIKVLNQLNLPAAEENKFLHHISNLLKNNTIEEIWSSSLSNKSKKVLDEELNNSKVFFGLLDYNNVTMLEETKLVYETEYYRLKSLLSSDDLDTEIAEKILRLGAIDTATKYLAKRIPGYEPEFLFSAFASNMENEAFKHNSAIYAGIVTRSDLQQPMLAIADTVSVLAHELMHFVYPSGTELLTPNVTKAAKKCTQDEVKRMGDSDVVKPIDGWFSKKVTHEDLANIMGLRMVMKMVARKSASEEQLKNALETLLSGLCIQGKPKNSILPHHHPFEISINTAVRQYPLFSSLYGCRLGDRMFAEAEQFCKPLGGEVNLEDYKIKNDTEDIGGFFTYIMDTANAFNFSFRN | not soluble
